T1: cynomolgus monkey IL-33 expressed with a C-terminal hexahistidine tag (cynomolgus monkey)
T1 construct: also called MfIL-33-6His; Mf-IL-33-6His
T1 chain: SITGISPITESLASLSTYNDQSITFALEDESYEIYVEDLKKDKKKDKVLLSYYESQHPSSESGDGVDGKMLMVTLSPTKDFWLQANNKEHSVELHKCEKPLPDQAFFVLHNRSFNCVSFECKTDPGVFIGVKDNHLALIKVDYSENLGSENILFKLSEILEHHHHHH

T2: human IL-33 (R&D Systems, #3625-IL-010/CF) (human, UniProt O95760 112-270)
T2 construct: Commercial recombinant protein; also called hIL-33; interleukin-33
T2 sequence (looked up): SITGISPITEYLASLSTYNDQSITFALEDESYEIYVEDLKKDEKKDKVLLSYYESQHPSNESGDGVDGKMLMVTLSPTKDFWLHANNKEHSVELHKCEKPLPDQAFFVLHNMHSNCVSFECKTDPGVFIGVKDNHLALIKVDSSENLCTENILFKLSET


How the values were obtained:
[1] = target: T3, pre-formed complex of hIL-33 and captured hST2-MMH (human, UniProt O95760 112-270); assay: SPR 25C, 100 nM mAb over hIL-33/hST2-MMH complex
T3 construct: Ligand-receptor complex on the sensor: hST2-MMH captured by anti-myc mAb and saturated with 100 nM hIL-33; also called hIL-33 pre-complexed with hST2-MMH
Description: The ability of anti-IL-33 antibodies to bind to a pre-formed complex of IL-33 with ST2 was tested using Biacore T-200 instrument equipped with a real-time surface plasmon resonance biosensor. The experiment was performed at 25° C. with a running buffer composed of 0.01M HEPES pH 7.4, 0.15M NaCl, 3 mM EDTA, and 0.05% v/v Surfactant Tween-20 (HBS-ET). […] The captured hST2-MMH surface was then saturated by injecting 100 nM of human IL-33 (hIL-33; R&D Systems, #3625-IL-010/CF) for 3 minutes followed by a 3 minute injection of a 100 nM solution of the anti-IL-33 monoclonal antibody. The real-time binding response was monitored during the entire course of the experiment, and the observed binding response at 3 minutes after injection of anti-IL-33 antibody to the pre-formed complex of hIL-33 and captured hST2-MMH was recorded and tabulated and shown in Table 7. No non-specific binding of anti-IL-33 monoclonal antibody to the anti-myc tag capture surface was observed.

[2] = target: T1, cynomolgus monkey IL-33 expressed with …; assay: SPR 25C, pH6.0 chase, mAb captured
Description: (§1) Equilibrium dissociation constants (KD values) for IL-33 binding to purified anti-IL-33 monoclonal antibodies were determined using a real-time surface plasmon resonance biosensor using a Biacore 4000 instrument. The Biacore sensor surface was first derivatized by amine coupling with either a polyclonal rabbit anti-mouse antibody (GE, # BR-1008-38) or with a monoclonal mouse anti-human Fc antibody (GE, # BR-1008-39) to capture anti-IL-33 monoclonal antibodies expressed with mouse or with human IgG4 constant regions, respectively. All Biacore binding studies were performed in 0.01M ADA pH 7.4, 0.15M NaCl, 3 mM EDTA, and 0.05% v/v Surfactant Tween-20 (ABS-ET running buffer). […] Association of either hIL-33 or MfIL-33-6His to the captured monoclonal antibody was monitored for 4 minutes and their dissociation in ABS-ET running buffer was monitored for 10 minutes. The effect of reduced pH on the binding of each anti-IL-33 antibody to either hIL-33 or MfIL-33-6His was studied using an in-line pH chase assay format in 0.01M ADA pH 6.0, 0.15M NaCl, 3 mM EDTA, and 0.05% v/v Surfactant Tween-20 (ABS-ET pH6 buffer). To achieve this, association of either hIL-33 or MfIL-33-6His to the captured monoclonal antibody was monitored for 4 minutes in ABS-ET running buffer. Following a 30 second dissociation of either hIL-33 or MfIL-33-6His in ABS-ET running buffer, ABS-ET pH6 buffer was injected for 3 minutes, and the analyte dissociation under the low-pH conditions was measured. All the binding kinetic experiments were performed at both 25° C. and 37° C. Kinetic association (kₐ) and dissociation (kd) constants were determined by fitting the real-time sensorgrams to a 1:1 binding model using Scrubber 2.0c curve fitting software. Binding dissociation equilibrium constants (KD) and dissociative half-lives (t½) were calculated from the kinetic rate constants as: […]

[3] = target: T2, human IL-33 (R&D Systems, …); assay: SPR 25C, pH6.0 chase, mAb captured
Description: as §1

[4] = target: T1, cynomolgus monkey IL-33 expressed with …; assay: BLI; mAb-1 on captured MfIL-33-6His
Description: Binding competition between a panel of different anti-IL-33 monoclonal antibodies was determined using a real time, label-free bio-layer interferometry assay on an Octet® HTX biosensor (ForteBio, A Division of Pall Life Sciences). The experiment was performed at 25° C. using a buffer of 0.01M HEPES pH7.4, 0.15M NaCl, 3 mM EDTA, 0.05% v/v Surfactant Tween-20, and 0.1 mg/ml BSA (HBS-ET kinetics buffer) with the plate shaking at a speed of 1000 rpm. […] The antigen-captured biosensors were then saturated with a first anti-IL-33 monoclonal antibody (subsequently referred to as mAb-1) by immersion into wells containing 50 μg/mL solution of mAb-1 for 5 minutes. The biosensors were then dipped into wells containing a 50 μg/mL solution of a second anti-IL-33 monoclonal antibody (subsequently referred to as mAb-2) for 4 minutes. The biosensors were washed in HBS-ET kinetics buffer in between every step of the experiment. The real-time binding response was monitored during the experiment, and the maximum binding response for each binding step was recorded. The response of mAb-2 binding to MfIL-33-6His pre-complexed with mAb-1 was measured, and competitive/non-competitive behavior of different anti-IL-33 monoclonal antibodies with respect to each other was determined.

| Binder | Antibody Binding Response (RU) [1] [RU] | koff [2] [s⁻¹] | t½ [2] [min] | t½ Ratio (pH 7.4/pH 6.0) [2] | koff [3] [s⁻¹] | t½ [3] [min] | t½ Ratio (pH 7.4/pH 6.0) [3] | mAb-1 Binding (nm) [4] [nm] |
| --- | --- | --- | --- | --- | --- | --- | --- | --- |
| H4H9665P (antibody, human IgG4, V domains shown, Human IgG4 Fc (H4H)) VH: EVQLVESGGGLVQPGGSLRLSCAASGFTFSNYAMTWVRQAPGKGLEWVSTISGSGDNTYYADSVQGRFTISRGHSKNTLYLQMNSLRAEDTAVYYCAKPTYSRSWYGAFDFWGQGTMVTVSS VL: DIQMTQSPSSVSASVGDRVTITCRASQGISSWLAWYQQKPGKAPQLLIYAASRLQSGVPSRFWGSGSGTDFTLTISSLQPEDFATYYCQQANNFPFTFGPGTKVDIK | 0 | 0.000753 | 15 | 1.3 | 0.00212 | 5 | 4.5 | 0.63 |
| H4H9663P (antibody, human IgG4, V domains shown, Human IgG4 Fc (H4H)) VH: QVQLVQSGAEVKKPGASVKVSCKASGYTFTGHYMYWMRQAPGQGLEWMGWINPNSGGTNYAQKFQDRVTMTRDTSISTAYMELSRLRSDDTAVYYCARGRYGSSWYGGFEYWGQGTLVTVSS VL: DIQMTQSPSSVSASVGDRVTITCRASQGITSWLAWYQQKPGKAPNLLIYAAASLQSGVPSRFSGSGSGTDFTLTISSLQPEDFTTYYCQQAYSLPLTFGGGTKVEIK | -1 | 0.000683 | 17 | 0.7 | 0.0011 | 11 | 2.7 | 0.54 |
| H4H9667P (antibody, human IgG4, V domains shown, Human IgG4 Fc (H4H)) VH: EVQLVESGGGLVQPGGSLRLSCAASGFTFSTYSMHWVRQAPGKGLEYVSTINNNGDTTYYADSVKGRFTISRDNSKNTLYLQLGSLRPEDMAVYYCARQTYTSSWYGGFDSWGQGTLVTVSS VL: DIQMTQSPSSVSASVGDRVTITCRASQGITSWLAWYQQKPGKAPKLLIYAASNLQSGVPSRFSGSGSGTDFTLTITSLQPEDFATYYCQQANSLPFTFGPGTKVDIK | -1 | 0.000696 | 17 | 0.7 | 0.000566 | 20 | 2.2 | 0.5 |
| H4H9666P (antibody, human IgG4, V domains shown, Human IgG4 Fc (H4H)) VH: QVQLVQSGAEVKKPGASVKVSCKASGYTFTSYGISWVRQAPGQGLEWMGWIRAYNGYTNYAQKFQGRVTMTTDTSTNTAYMELRTLNSDDTAVYYCARDRYSGSFHGNFDYWGQGTLVTVSS VL: DIQMTQSPSSVSASVGDRVTITCRASQGIFSWLAWYQQKPGKAPKVLIYAASNLESGVPSRFSGSGSGTDFTLTISSLQPEDFATYYCQQANSLPLTFGGGTKVEIK | -1 | 0.00809 | 1.4 | 2.3 | 0.00134 | 9 | 4.8 | 0.57 |
| H4H9664P (antibody, human IgG4, V domains shown, Human IgG4 Fc (H4H)) VH: QVQLVESGGGVVQPGRSLRLSCAASGFTFSSYGLHWVRQSPGKGLEWVALISYDGSNKYYADSVKGRFTISRDNSKNTLYLQMNSLRPEDTAGYFCAKSLYTTSWYGGFDYWGQGTLVTVSS VL: DIQMTQSPSSVSASVGDRVTITCRASQGIRSWLAWYQQKPGKAPNLLIYAASSLQSGVPSRFSGSGSGTDFTLTISSLQPEDFATYYCQQANSFPPTFGPGTKVDIK | -1 | 0.00048 | 24 | 0.3 | 0.000823 | 14 | 3.2 | 0.61 |
| H4H9670P (antibody, V domains shown, Human IgG4 Fc (H4H)) VH: EVQLVESGGGLVQPGGSLRLSCAASGFTLSSYAMSWVRQAPGKGLEWVSAISGSGGSTYYADSVKGRFTISRDNSKNSLYLQLNSLRAEDTAVYYCAKTLYTTSWYGGFQHWGQGTLVTVSS VL: DIQMTQSPSSVSASIGDRVTITCRASQGISSWLAWYQQKPGKVPKLLIYAASSLQSGFPSRFSGSGSGTDFTLTISSLQPEDFATYYCQQTHSFPWTVGQGTKVEIK | -1 | 0.000393 | 29 | 0.2 | 0.000825 | 14 | 2.9 | 0.56 |

More lines, now with the values ahead:

| Antibody Binding Response (RU) [1] [RU] | koff [2] [s⁻¹] | t½ [2] [min] | t½ Ratio (pH 7.4/pH 6.0) [2] | koff [3] [s⁻¹] | t½ [3] [min] | t½ Ratio (pH 7.4/pH 6.0) [3] | mAb-1 Binding (nm) [4] [nm] | Binder |
| --- | --- | --- | --- | --- | --- | --- | --- | --- |
| -1 | 0.00161 | 7 | 1.1 | 0.00162 | 7 | 4.6 | 0.58 | H4H9671P (antibody, human IgG4, V domains shown, Human IgG4 Fc (H4H)) VH: EVQLVESGGGLVQPGGSLRLSCAASGFTLRSYFMTWVRQVPGKGLEGVSAISGISGGTYYTDSVKGRFTISRDNSKNTLFLQMNSLRAEDTAVYFCARTVYSSSYYGGFQHWGQGTLVTVSS VL: DIQMTQSPSSVSVSVGDRVTITCRASQGISSWLAWYQQKPGKAPKLLIYVASSLQSGVPSRFSGSGSGTDFTLTISSLQPEDFATYYCQQTNSFPLTFGGGTKVEIK |
| -1 | 0.00156 | 7 | 1.2 | 0.00111 | 10 | 4.3 | 0.52 | H4H9675P (antibody, human IgG4, V domains shown, Human IgG4 Fc (H4H)) VH: EVQLVESGGNLEQPGGSLRLSCTASGFTFSRSAMNWVRRAPGKGLEWVSGISGSGGRTYYADSVKGRFTISRDNSKNTLYLQMNSLSAEDTAAYYCAKDSYTTSWYGGMDVWGHGTTVTVSS VL: DIQMTQSPSSVSASVGDRVTITCRASQGIFSWLAWYQQKPGKAPKLLIYAASSLQSGVPSRFSGSGSGTDFTLTISSLQPEDFAIYYCQQANSVPITFGQGTRLEIK |
| -1 | 0.00267 | 4 | 0.7 | 0.00141 | 8 | 4 | 0.56 | H4H9672P (antibody, human IgG4, V domains shown, Human IgG4 Fc (H4H)) VH: EVQLVESGGGLVQPGGSLRLSCAASGFTLRSYVMYWVRQGPGKGLEGVSGISGSSGGTYYTDSVKGRFTISRDNSKNTLFLQMNSLRAEDTAVYFCARSVYSTTWYGGFQHWGQGTLVTVSS VL: DIQMTQSPSSVSVSVGDRVTITCRASQVISSWLAWYQLKPGKAPKLLIYAASSLQSGVPSRFSGSGSGTDFTLTISGLQPEDFAVYYCQQTNSFPLTFGGGTKVEIK |
